{
  "source": "paper PMC8406260",
  "origin": "cited, not measured here",
  "molecular_target": "SARS-CoV-2 main protease Mpro (Severe acute respiratory syndrome coronavirus 2) (UniProt P0DTD1)",
  "data": [
    {"substance": "SARS-CoV-2 main protease Mpro (from UniProt P0DTD1)", "values": [
      {"measurement": "Kd", "value": 2000, "unit": "nM"}
    ]}
  ]
}
